The values below come from paper PMC4646180.

This experiment deals with Ub-AMC (ubiquitin with 7-amino-4-methylcoumarin at its C terminus) (UniProt P0CG48).

In turn, “MHV PLP2+ F1812A (from UniProt P0C6V0 1525-1911) (enzyme)” registered a Relative activity of WT, 500 nM Ub-AMC of 3.3%.
The same measure for “MHV PLP2+ D1772R (from UniProt P0C6V0 1525-1911) (enzyme)”: 1.1%.
For “MHV PLP2+ D1807R (from UniProt P0C6V0 1525-1911) (enzyme)”, the Relative activity of WT, 500 nM Ub-AMC stood at 0.5%.
The same measure for “MHV PLP2+ Y1824F (from UniProt P0C6V0 1525-1911) (enzyme)”: 70.3%; for “MHV PLP2+ Y1824A (from UniProt P0C6V0 1525-1911) (enzyme)”: 3%.
